Source: publication PMC11513116
Where “and” joins values, the source holds several entries; their conditions need not be identical. Equal entries are not always repeated.

Molecular target: GCSC1-GFP fusion protein (UBIpro::GCSC1-GFP) (rice (variety Lemont))
Test: native gel or EMSA

Substance: GCSC1-GFP fusion protein (UBIpro::GCSC1-GFP) (natural protein)
- stoichiometry N: 2 and 4
